# Data taken from patent US20040132130.
# T1: Ac-Ala-Ala-Pro-Thr(Man)-Pro-Val-Ala-Ala-Pro-NH2
# T1 chain: AAPTPVAAP
# Molecular target: T1, Ac-Ala-Ala-Pro-Thr(Man)-Pro-Val-Ala-Ala- …
Protein,Km value [µM],OMGnT activity (pmol/hr/mg protein) (pmol/hr/mg protein),OMGnT relative activity (%)
His-Xpress-sOMGnT(S) (protein) SSAEEAECHWADTELNRRRRRFCSKVEGYGSVCSCKDPTPIEFSPDPLPDNKVLNVPVAVIAGNRPNYLYRMLRSLLSAQGVSPQMITVFIDGYYEEPMDVVALFGLRGIQHTPISIKNARVSQHYKASLTATFNLFPEAKFAVVLEEDLDIAVDFFSFLSQSIHLLEEDDSLYCISAWNDQGYEHTAEDPALLYRVETMPGLGWVLRRSLYKEELEPKWPTPEKLWDWDMWMRMPEQRRGRECIIPDVSRSYHFGIVGLNMNGYFHEAYFKKHKFNTVPGVQLRNVDSLKKEAYEVEVHRLLSEAEVLDHSKNPCEDSFLPDTEGHTYVAFIRMEKDDDFTTWTQLAKCLHIWDLDVRGNHRGLWRLFRKKNHFLVVGVPASPYSVKKPPSVTPIFLEPPPKEEGAPGAPEQT,1360,20,100
His-Xpress-sGnT-I (protein) SVSALDGDPASLTREVIRLAQDAEVELERQRGLLQQIGDALSSQRGRVPTAAPPAQPRVPVTPAPAVIPILVIACDRSTVRRCLDKLLHYRPSAELFPIIVSQDCGHEETAQAIASYGSAVTHIRQPDLSSIAVPPDHRKFQGYYKIARHYRWALGQVFRQFRFPAAVVVEDDLEVAPDFFEYFRATYPLLKADPSLWCVSAWNDNGKEQMVDASRPELLYRTDFFPGLGWLLLAELWAELEPKWPKAFWDDWMRRPEQRQGRACIRPEISRTMTFGRKGVSHGQFFDQHLKFIKLNQQFVHFTQLDLSYLQREAYDRDFLARVYGAPQLQVEKVRTNDRKELGEVRVQYTGRDSFKAFAKALGVMDDLKSGVPRAGYRGIVTFQFRGRRVHLAPPLTWEGYDPSWN,,0.4,
